Sequences and labels used below:
B1: Lens culinaris agglutinin (LCA) lectin (manufactured by Vector Laboratories) (other)
chain 1: TETTSFSITKFSPDQKNLIFQGDGYTTKGKLTLTKAVKSTVGRALYSTPIHIWDRDTGNVANFVTSFTFVIDAPSSYNVADEFTFFIAPVDTKPQTGGGYLGVFNSKEYDKTSQTVAVEFDTFYNAAWDPSNKERHIGIDVNSIKSVNTKSWNLQNGERANVVIAFNAATNVLTVTLTYP
chain 2: VTSYTLNEVVPLKDVVPEWVRIGFSATTGAEFAAHEVHSWSFHSELGGTSSS
notes: A lectin; also called lentil lectin
B2: MSPS, purified recombinant human Protein S obtained from FUT8 knockout CHO/DG44 cells (other)
chain: ANSLLEETKQGNLERECIEELCNKEEAREVFENDPETDYFYPKYLVCLRSFQTGLFTAARQSTNAYPDLRSCVNAIPDQCSPLPCNEDGYMSCKDGKASFTCTCKPGWQGEKCEFDINECKDPSNINGGCSQICDNTPGSYHCSCKNGFVMLSNKKDCKDVDECSLKPSICGTAVCKNIPGDFECECPEGYRYNLKSKSCEDIDECSENMCAQLCVNYPGGYTCYCDGKKGFKLAQDQKSCEVVSVCLPLNLDTKYELLYLAEQFAGVVLYLKFRLPEISRFSAEFDFRTYDSEGVILYAESIDHSAWLLIALRGGKIEVQLKNEHTSKITTGGDVINNGLWNMVSVEELEHSISIKIAKEAVMDINKPGPLFKPENGLLETKVYFAGFPRKVESELIKPINPRLDGCIRSWNLMKQGASGIKEIIQEKQNKHCLVTVEKGSYYPGSGIAQFHIDYNNVSSAEGWHVNVTLNIRPSTGTGVMLALVSGNNTVPFAVSLVDSTSEKSQDILLSVENTVIYRIQALSLCSDQQSHLEFRVNRNNLELSTPLKIETISHEDLQRQLAVLDKAMKAKVATYLGGLPDVPFSATPVNAFYNGCMEVNINGVQLDLDEAISKHNDIRAHSCPSVWKKTKNS
modifications: gamma-carboxylated glutamic acid (Gla) in the Gla domain; complex type N-glycoside-linked sugar chains without fucose (fucose not detected)
notes: It differs from KCPS only in glycosylation (no core fucose); also called fucose-free recombinant Protein S
B3: human plasma-derived Protein S (manufactured by Calbiochem) (other)
chain: B2 chain
modifications: gamma-carboxylated glutamic acid (Gla) in the N-terminal Gla domain; complex type N-glycoside-linked sugar chains (Asn458, Asn468, Asn489), partly with core alpha1,6-fucose (Fuc 0.26 per Man 3.00)
notes: Bought protein purified from human plasma; also called native Protein S; Human plasma Protein S
B4: KCPS, purified recombinant human Protein S obtained from CHO/DG44 cells (other)
chain: B2 chain
modifications: gamma-carboxylated glutamic acid (Gla) in the Gla domain; complex type N-glycoside-linked sugar chains with fucose (Fuc 0.69 per Man 3.00)
notes: It differs from MSPS only in glycosylation (highest core fucose ratio)
B5: recombinant human CD14 protein (manufactured by R&D systems) (receptor, UniProt P08571 20-352, looked up)
chain: TTPEPCELDDEDFRCVCNFSEPQPDWSEAFQCVSAVEVEIHAGGLNLEPFLKRVDADADPRQYADTVKALRVRRLTVGAAQVPAQLLVGALRVLAYSRLKELTLEDLKITGTMPPLPLEATGLALSSLRLRNVSWATGRSWLAELQQWLKPGLKVLSIAQAHSPAFSCEQVRAFPALTSLDLSDNPGLGERGLMAALCPHKFPAIQNLALRNTGMETPTGVCAALAAAGVQPHSLDLSHNSLRATVNPSAPRCMWSSALNSLNLSFAGLEQVPKGLPAKLRVLDLSCNRLNRAPQPDELPEVDNLTLDGNPFLVPGTALPHEGSMNSGVVPAC
notes: Bought

The target in assay [1] is MSPS, purified recombinant human Protein S obtained from FUT8 knockout CHO/DG44 cells (human) (UniProt P07225). Description: SPR (Biacore T100), MSPS immobilised on CM5, C-17 as analyte. (SPR reads the build-up and loss of mass on a sensor chip optically.)
For assay [2], the target named is human plasma-derived Protein S (manufactured by Calbiochem) (human) (UniProt P07225). Nature of the assay: SPR (Biacore T100), Protein S immobilised on CM5, C-17 as analyte.
For assay [3], the target named is KCPS, purified recombinant human Protein S obtained from CHO/DG44 cells (human) (UniProt P07225). Description: SPR (Biacore T100), KCPS immobilised on CM5, C-17 as analyte.
Assay [4] addresses T1, human plasma-derived antithrombin III (manufactured by Calbiochem) (human, UniProt P01008 33-464, four asparagine-linked sugar chains without core alpha1,6-fucose).
T1 construct: mature; Bought plasma protein; also called human plasma antithrombin III
Description: SPR (Biacore T100), antithrombin III immobilised on CM5 chip, LCA as analyte. As for the experimental part:
The abscissa represents time (seconds), and the ordinate represents a binding activity of LCA to a glycoprotein on a sensor chip of Biacore T100. From the top, each sensorgram represents a value obtained when LCA was allowed to run at concentrations of 50000, 25000, 12500, 6250, 3125 and 0 ng/mL. The top represents the binding between human plasma Protein S and LCA, and the bottom represents the binding between human plasma antithrombin III and LCA.
Next, in order to analyze the binding mode of fucose added to the sugar chain of the human plasma-derived Protein S, the binding between core α1,6-fucose-specific lectin, Lens culinaris agglutinin (LCA) lectin and Protein S was analyzed by surface plasmon resonance. Using an amine coupling kit (manufactured by Biacore), human plasma-derived Protein S (manufactured by Calbiochem) and human plasma-derived antithrombin III (manufactured by Calbiochem) were respectively immobilized on flow cells of a CM5 sensor chip (manufactured by Biacore). The human plasma-derived antithrombin III is a glycoprotein having four asparagine-linked sugar chains, but these sugar chains are known not to have core α1,6-fucose (WO2005/035563). An immobilized amount of the ligand protein on the respective flow cells was set to the range of 2000 to 3000 resonance units (hereinafter referred to as “RU”). […]

The target of assay [5] is T2, human plasma-derived complement C4 binding protein (C4BP; manufactured by BioMed) (human, UniProt P04003 49-597; P20851 18-252).
T2 construct: mature; Bought plasma protein; also called Human C4BP
T2 sequence (looked up) 1: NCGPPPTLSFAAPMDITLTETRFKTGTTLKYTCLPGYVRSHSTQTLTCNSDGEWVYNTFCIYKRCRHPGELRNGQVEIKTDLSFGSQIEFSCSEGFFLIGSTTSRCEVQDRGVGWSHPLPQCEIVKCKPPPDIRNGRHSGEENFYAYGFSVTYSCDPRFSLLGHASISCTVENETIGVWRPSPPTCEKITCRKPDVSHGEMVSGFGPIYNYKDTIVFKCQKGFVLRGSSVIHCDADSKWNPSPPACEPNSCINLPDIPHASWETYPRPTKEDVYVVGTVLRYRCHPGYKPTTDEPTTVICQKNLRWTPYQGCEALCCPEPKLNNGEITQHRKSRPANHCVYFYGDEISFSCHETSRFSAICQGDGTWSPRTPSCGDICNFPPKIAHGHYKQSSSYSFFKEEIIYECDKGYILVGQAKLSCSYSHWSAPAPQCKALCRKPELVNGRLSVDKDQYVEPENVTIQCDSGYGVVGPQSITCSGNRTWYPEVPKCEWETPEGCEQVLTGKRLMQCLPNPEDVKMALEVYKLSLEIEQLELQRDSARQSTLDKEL
T2 sequence (looked up) 2: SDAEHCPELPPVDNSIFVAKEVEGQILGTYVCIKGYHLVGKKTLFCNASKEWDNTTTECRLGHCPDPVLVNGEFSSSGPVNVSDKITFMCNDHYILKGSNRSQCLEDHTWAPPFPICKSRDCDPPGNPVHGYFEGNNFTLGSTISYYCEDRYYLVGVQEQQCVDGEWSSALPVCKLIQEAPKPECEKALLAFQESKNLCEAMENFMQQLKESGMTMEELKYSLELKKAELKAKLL
Nature of the assay: SPR (Biacore T100), MSPS immobilised on CM5, C4BP as analyte. The source says: (§1) Using an amine coupling kit (manufactured by Biacore), human plasma-derived Protein S (manufactured by Calbiochem), and recombinant human Protein S prepared in Example 4, MSPS and KCPS were respectively immobilized on flow cells of a CM5 sensor chip (manufactured by Biacore). An immobilized amount of the ligand protein on the respective flow cells was set to the range of 1500 to 2000 RU. Then, an anti-human Protein S antibody C-17 (manufactured by Santa Cruz) (FIG. 7), or a human plasma-derived complement C4 binding protein (manufactured by BioMed) diluted to given concentrations (50000, 25000, 12500, 6250, 3125, and 1562 ng/mL) using HBS-EP+buffer (manufactured by Biacore), as an analyte, was allowed to run and bind to the ligand-immobilized flow cells at a temperature of 25° C., a flow rate of 5 μL/min, association time of 140 seconds, and dissociation time of 240 seconds. The anti-human Protein S antibody C-17 and the human plasma-derived complement C4 binding protein are known to bind to the sex hormone-binding globulin-like domain (SHBG domain) at the carboxyl terminal of Protein S. The chip was regenerated by a flow of an aqueous glycine solution (pH 1.5) (manufactured by Biacore) for 60 seconds. Dissociation constants calculated by analysis of the obtained data using Biacore T100 evaluation software ver 1.1 (manufactured by Biacore) are given in Table 2 below.

Assay [6] concerns the target T3, recombinant human RAGE-Fc fusion protein (manufactured by R&D Systems) (human, UniProt Q15109 24-344).
T3 construct: Bought fusion protein; also called recombinant soluble RAGE-human IgG1 Fc chimeric protein; not shown: Fc of human IgG1
Nature of the assay: SPR (Biacore T100), Protein S immobilised on CM5, RAGE-Fc as analyte.

The target in assay [7] is T2, human plasma-derived complement C4 …. Nature of the assay: SPR (Biacore T100), Protein S immobilised on CM5, C4BP as analyte.
Text: as §1

Assay [8] shares this target. Description: SPR (Biacore T100), KCPS immobilised on CM5, C4BP as analyte.
Text: as §1

The target of assay [9] is B2. Description: SPR (Biacore T100), Protein S immobilised on C1 chip, CD14 as analyte. As to the method: Using an amine coupling kit, human plasma-derived Protein S, and recombinant human Protein S prepared in Example 3, MSPS were respectively immobilized at 700 to 800 RU on flow cells of a Series S C1 sensor chip (manufactured by Biacore). Then, the experiment was carried out in the same manner as in Example 5, using a recombinant human CD14 protein (manufactured by R&D systems) diluted to given concentrations (25000, 12500, 6250, 3125, and 1562 ng/mL) using HBS-EP+buffer (manufactured by Biacore), as an analyte.

For orientation: Kd means the equilibrium constant for the complex coming apart.

T1 sequence (P01008 33-464): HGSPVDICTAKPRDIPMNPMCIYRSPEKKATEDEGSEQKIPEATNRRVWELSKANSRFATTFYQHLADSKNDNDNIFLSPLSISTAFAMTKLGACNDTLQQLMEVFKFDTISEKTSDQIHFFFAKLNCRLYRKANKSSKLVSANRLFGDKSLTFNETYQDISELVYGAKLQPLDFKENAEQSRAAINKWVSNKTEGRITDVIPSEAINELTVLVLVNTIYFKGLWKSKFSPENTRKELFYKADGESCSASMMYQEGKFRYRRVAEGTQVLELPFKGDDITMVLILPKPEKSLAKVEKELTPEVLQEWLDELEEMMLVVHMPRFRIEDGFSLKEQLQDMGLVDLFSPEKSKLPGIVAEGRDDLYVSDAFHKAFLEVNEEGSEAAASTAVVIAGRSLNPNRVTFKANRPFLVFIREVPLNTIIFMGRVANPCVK
T3 sequence (Q15109 24-344 limits assumed): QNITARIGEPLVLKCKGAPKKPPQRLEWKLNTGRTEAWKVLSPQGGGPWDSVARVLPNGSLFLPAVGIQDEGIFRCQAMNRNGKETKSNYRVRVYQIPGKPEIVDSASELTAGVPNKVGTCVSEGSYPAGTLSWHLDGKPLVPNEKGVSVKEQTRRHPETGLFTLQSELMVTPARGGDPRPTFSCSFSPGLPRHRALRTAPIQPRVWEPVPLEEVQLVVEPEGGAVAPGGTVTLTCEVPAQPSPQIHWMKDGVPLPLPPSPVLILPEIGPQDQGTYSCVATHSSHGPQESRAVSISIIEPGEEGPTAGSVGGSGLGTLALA

Consider “anti-human Protein S antibody C-17 (manufactured by Santa Cruz)”, for which the equilibrium dissociation constant (Kd) in assay [1] worked out at 240 nM; in [2], 230 nM; in [3], 220 nM.
Consider B1, for which the binding result in assay [4] is listed as “no binding (tested: 50000 ng/mL)”.
Consider B2, for which the affinity in assay [5], expressed as Kd, was 92 nM. Moreover, the “fold affinity for RAGE against human plasma Protein S” value in [6] is about 7 fold.
In assay [7], B3 showed a Kd of 101 nM.
In assay [8], B4 displayed a Kd of 81 nM.
On to B5, for which, in [9], the binding result was “binds”.

The values above are taken from patent US20100162418A1 (Kyowa Kirin, published 2010).
